The text below walks through data of the supplement of paper PMC5998384.

Data set [1] relates to HeLa Kyoto. Briefly: solubility change mitosis vs G1/S (difference of NP-40 vs SDS log2 ratios) (log2 ratio difference); higher = more soluble in mitosis.
For data set [2], the system named is HeLa Kyoto. Briefly: melting temperature (median over replicates), in situ; higher = more thermally stable.
Data set [3] deals with HeLa Kyoto. As to the kind of experiment: solubility in G1/S (NP-40 vs SDS abundance) (log2 ratio); higher = more soluble. Conditions: cell cycle stage: G1/S.
For data set [4], the system named is HeLa Kyoto. As to the kind of experiment: thermal stability score vs G1/S (z-score of summed log2 fold changes over temperatures); higher = more thermally stable than in G1/S.
The mark [5] stands for this setting: cell cycle stage: early G1 (4.5 h after nocodazole release).
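Wherever melting temperature (median over replicates), in situ is given: HeLa Kyoto cells synchronized by double thymidine or nocodazole block, proteins quantified by TMT10plex mass spectrometry, three independent biological replicates.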
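Wherever solubility change mitosis vs G1/S (difference of NP-40 vs SDS log2 ratios) is given: synchronized HeLa Kyoto cells (double thymidine block for G1/S, nocodazole release for mitosis), protein amounts in NP-40 versus SDS lysates quantified by mass spectrometry, three biological replicates.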
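Wherever solubility in G1/S (NP-40 vs SDS abundance) is given: HeLa Kyoto cells arrested at G1/S by double thymidine block, proteins quantified by TMT10plex mass spectrometry in mild NP-40 versus SDS extracts, three biological replicates.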
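Wherever thermal stability score vs G1/S (z-score of summed log2 fold changes over temperatures) is given: synchronized HeLa Kyoto cells, proteins quantified by TMT10plex mass spectrometry, three biological replicates, mitosis taken 0.5 h after nocodazole release, G1/S directly after double thymidine block.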

“MAASASAAAGEEDWVLPSEVEVLESIYLDELQVIKGNGRTSPWEIYITLHPATAEDQDSQYVCFTLVLQVPAEYPHEVPQISIRNPRGLSDEQIHTILQVLGHVAKAGLGTAMLYELIEKGKEILTDNNIPHGQCVICLYGFQEKEAFTKTPCYHYFHCHCLARYIQHMEQELKAQGQEQEQERQHATTKQKAVGVQCPVCREPLVYDLASLKAAPEPQQPMELYQPSAESLRQQEERKRLYQRQQERGGIIDLEAERNRYFISLQQPPAPAEPESAVDVSKGSQPPSTLAAELSTSPAVQSTLPPPLPVATQHICEKIPGTRSNQQRLGETQKAMLDPPKPSRGPWRQPERRHPKGGECHAPKGTRDTQELPPPEGPLKEPMDLKPEPHSQGVEGPPQEKGPGSWQGPPPRRTRDCVRWERSKGRTPGSSYPRLPRGQGAYRPGTRRESLGLESKDGS [RNF25]”: in the data set with HeLa Kyoto [1], the “solubility change mitosis (log2)” value came to 0.00785. The melting temperature in the data set with HeLa Kyoto [2] (cell cycle stage: G1/S) and with HeLa Kyoto [2] (cell cycle stage: mitosis) was 52.7 °C throughout. Besides, the “solubility in G1/S (log2)” value with HeLa Kyoto [3] turned out to be 0.537. The figures for the thermal stability score in the data set on HeLa Kyoto [4] (setting [5]) and in the data set on HeLa Kyoto [4] (cell cycle stage: mitosis) were -0.22 and -0.474, respectively.

For “MAAYKLVLIRHGESAWNLENRFSGWYDADLSPAGHEEAKRGGQALRDAGYEFDICFTSVQKRAIRTLWTVLDAIDQMWLPVVRTWRLNERHYGGLTGLNKAETAAKHGEAQVKIWRRSYDVPPPPMEPDHPFYSNISKDRRYADLTEDQLPSCESLKDTIARALPFWNEEIVPQIKEGKRVLIAAHGNSLRGIVKHLEGLSEEAIMELNLPTGIPIVYELDKNLKPIKPMQFLGDEETVRKAMEAVAAQGKAKK [PGAM1]”, the “solubility change mitosis (log2)” value in the data set on HeLa Kyoto [1] was -0.15. The melting temperature was determined as 55.7 °C in the data set on HeLa Kyoto [2] (cell cycle stage: G1/S) and 57.8 °C in the data set on HeLa Kyoto [2] (cell cycle stage: mitosis). Moreover, the “solubility in G1/S (log2)” value with HeLa Kyoto [3] was 0.324. The thermal stability score in the data set with HeLa Kyoto [4] (setting [5]) is -0.0829; with HeLa Kyoto [4] (cell cycle stage: mitosis) it was -2.07.

Take “MVSKMIIENFEALKSWLSKTLEPICDADPSALAKYVLALVKKDKSEKELKALCIDQLDVFLQKETQIFVEKLFDAVNTKSYLPPPEQPSSGSLKVEFFPHQEKDIKKEEITKEEEREKKFSRRLNHSPPQSSSRYRENRSRDERKKDDRSRKRDYDRNPPRRDSYRDRYNRRRGRSRSYSRSRSRSWSKERLRERDRDRSRTRSRSRTRSRERDLVKPKYDLDRTDPLENNYTPVSSVPSISSGHYPVPTLSSTITVIAPTHHGNNTTESWSEFHEDQVDHNSYVRPPMPKKRCRDYDEKGFCMRGDMCPFDHGSDPVVVEDVNLPGMLPFPAQPPVVEGPPPPGLPPPPPILTPPPVNLRPPVPPPGPLPPSLPPVTGPPPPLPPLQPSGMDAPPNSATSSVPTVVTTGIHHQPPPAPPSLFTADTYDTDGYNPEAPSITNTSRPMYRHRVHAQRPNLIGLTSGDMDLPPREKPPNKSSMRIVVDSESRKRTIGSGEPGVPTKKTWFDKPNFNRTNSPGFQKKVQFGNENTKLELRKVPPELNNISKLNEHFSRFGTLVNLQVAYNGDPEGALIQFATYEEAKKAISSTEAVLNNRFIKVYWHREGSTQQLQTTSPKVMQPLVQQPILPVVKQSVKERLGPVPSSTIEPAEAQSASSDLPQNVTKLSVKDRLGFVSKPSVSATEKVLSTSTGLTKTVYNPAALKAAQKTLLVSTSAVDNNEAQKKKQEALKLQQDVRKRKQEILEKHIETQKMLISKLEKNKTMKSEDKAEIMKTLEVLTKNITKLKDEVKAASPGRCLPKSIKTKTQMQKELLDTELDLYKKMQAGEEVTELRRKYTELQLEAAKRGILSSGRGRGIHSRGRGAVHGRGRGRGRGRGVPGHAVVDHRPRALEISAFTESDREDLLPHFAQYGEIEDCQIDDSSLHAVITFKTRAEAEAAAVHGARFKGQDLKLAWNKPVTNISAVETEEVEPDEEEFQEESLVDDSLLQDDDEEEEDNESRSWRR [RBM26]”: the “solubility change mitosis (log2)” value in the data set on HeLa Kyoto [1] was 0.0367. Besides, the melting temperature in the data set on HeLa Kyoto [2] (cell cycle stage: G1/S) amounted to 47 °C; in the data set with HeLa Kyoto [2] (cell cycle stage: mitosis), 48.9 °C. For the same sequence, the “solubility in G1/S (log2)” value in the data set on HeLa Kyoto [3] is -0.109. The thermal stability score turned out to be 1.92 with HeLa Kyoto [4] (setting [5]) and 4.06 in the data set with HeLa Kyoto [4] (cell cycle stage: mitosis).
